Bridge positions count the residues as written; N and C are the ends. Square brackets hold non-standard residues; d marks the D form. Ends that are not written are not given here. Aib = CC(C)(N)C(=O)O
Key:
Format in all cases: cell-based
human GLP-1 receptor = target: T1, human GLP-1 receptor (Homo sapiens, UniProt P43220); experiment: In vitro cAMP activity in human GLP-1 receptor-expressing CHO cells (LANCE cAMP kit); settings: long-acting conjugate; relative titer from cAMP EC50 compared to human GLP-1
T1 construct: expressed in transfected cells; host or cells: Chinese hamster ovary (CHO)
Protocol: (§1) In order to measure the activity of the triple agonists and long-acting conjugates thereof prepared according to Examples 1 and 2, the in-vitro cell activity was measured using cell lines transformed with GLP-1 receptor, glucagon (GCG) receptor, and GIP receptor, respectively.
(§2) The cell lines were transformed to express human GLP-1 receptor, human GCG receptor and human GIP receptor genes in Chinese hamster ovary (CHO), respectively, and are suitable for measuring the activities of GLP-1, GCG, and GIP. Therefore, the activity for each part was measured using each transformed cell line.
(§3) To measure the GLP-1 activity of the triple agonists and long-acting conjugates prepared according to Examples 1 and 2, human GLP-1 was diluted from 50 nM to 0.000048 nM by 4-fold serial dilution, and the triple agonists and long-acting conjugates thereof prepared according to Examples 1 and 2 were diluted from 400 nM to 0.00038 nM by 4-fold serial dilution. The culture medium was removed from the cultured human GLP-1 receptor-expressing CHO cells, 5 μl of each of the serially diluted materials was added to the cells, and then 5 μl of buffer containing cAMP antibody was added to the cells, followed by 15 minutes of incubation at room temperature. Then, cells were lysed by adding 10 μl of detection mix containing cell lysis buffer, and reacted at room temperature for 90 minutes. The cell lysate after the reaction had been completed, was applied to the LANCE cAMP kit (PerkinElmer, USA) to calculate the EC50 value through the accumulated cAMP, and then compared with each other.

human GCG receptor = target: T2, human GCG receptor (Homo sapiens, UniProt P47871); experiment: In vitro cAMP activity in human GCG receptor-expressing CHO cells (LANCE cAMP kit); settings: for In vitro activity compared to native-type peptide (%) vs Glucagon: long-acting conjugate, relative titer from cAMP EC50 compared to human GCG; for activity on the glucagon receptor: in words
T2 construct: expressed in transfected cells; host or cells: Chinese hamster ovary (CHO)
Protocol: as §1, §2
as §3, with “GCG” for “GLP-1”, “to” for “to 0.000048”

human GIP receptor = target: T3, human GIP receptor (Homo sapiens, UniProt P48546); experiment: In vitro cAMP activity in human GIP receptor-expressing CHO cells (LANCE cAMP kit); settings: long-acting conjugate; relative titer from cAMP EC50 compared to human GIP
T3 construct: expressed in transfected cells; host or cells: Chinese hamster ovary (CHO)
T3 sequence (P48546 22-466): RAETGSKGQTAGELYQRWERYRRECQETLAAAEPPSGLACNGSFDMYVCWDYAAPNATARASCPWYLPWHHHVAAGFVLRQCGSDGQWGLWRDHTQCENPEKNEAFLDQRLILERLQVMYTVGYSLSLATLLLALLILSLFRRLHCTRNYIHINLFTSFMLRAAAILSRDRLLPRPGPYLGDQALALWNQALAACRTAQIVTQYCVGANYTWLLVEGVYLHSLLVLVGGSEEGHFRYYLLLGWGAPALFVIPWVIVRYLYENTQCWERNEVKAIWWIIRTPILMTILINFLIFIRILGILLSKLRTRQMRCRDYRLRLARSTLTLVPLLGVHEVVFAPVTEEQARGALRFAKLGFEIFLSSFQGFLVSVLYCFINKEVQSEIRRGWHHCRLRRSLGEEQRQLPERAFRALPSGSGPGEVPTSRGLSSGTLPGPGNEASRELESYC
Protocol: as §1, §2
as §3, with “measure the GIP activity of” for “measure the GLP-1 activity of”, “long-acting conjugates thereof prepared according” for “long-acting conjugates prepared according”, “2, human GIP was diluted” for “2, human GLP-1 was diluted”, “nM to […] by” for “nM to 0.000048 nM by”, “cultured human GIP receptor-expressing CHO” for “cultured human GLP-1 receptor-expressing CHO”

T1 sequence (P43220 24-463): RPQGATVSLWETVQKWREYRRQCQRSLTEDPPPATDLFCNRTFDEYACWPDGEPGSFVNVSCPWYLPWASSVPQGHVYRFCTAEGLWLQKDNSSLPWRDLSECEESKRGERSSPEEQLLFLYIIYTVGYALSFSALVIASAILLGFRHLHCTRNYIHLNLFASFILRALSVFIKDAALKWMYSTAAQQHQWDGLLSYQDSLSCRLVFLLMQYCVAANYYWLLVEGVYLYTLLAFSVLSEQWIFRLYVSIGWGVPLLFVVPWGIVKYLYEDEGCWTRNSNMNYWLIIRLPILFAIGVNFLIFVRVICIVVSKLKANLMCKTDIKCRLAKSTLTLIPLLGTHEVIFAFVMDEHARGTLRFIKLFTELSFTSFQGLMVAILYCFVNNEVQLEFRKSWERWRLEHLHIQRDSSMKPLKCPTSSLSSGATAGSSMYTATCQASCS
T2 sequence (P47871 26-477): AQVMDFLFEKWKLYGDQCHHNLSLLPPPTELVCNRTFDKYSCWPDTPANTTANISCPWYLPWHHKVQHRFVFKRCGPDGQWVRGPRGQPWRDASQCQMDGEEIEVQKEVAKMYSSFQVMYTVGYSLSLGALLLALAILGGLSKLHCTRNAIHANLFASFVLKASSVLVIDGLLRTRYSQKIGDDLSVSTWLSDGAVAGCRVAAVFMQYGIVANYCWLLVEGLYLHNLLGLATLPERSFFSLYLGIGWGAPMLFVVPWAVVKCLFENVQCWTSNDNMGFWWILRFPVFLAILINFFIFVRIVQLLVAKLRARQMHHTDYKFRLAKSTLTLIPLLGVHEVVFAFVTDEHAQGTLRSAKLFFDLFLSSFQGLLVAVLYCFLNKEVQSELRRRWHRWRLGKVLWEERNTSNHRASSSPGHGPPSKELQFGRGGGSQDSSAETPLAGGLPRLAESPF

## 21 (Y[Aib]QGTFTSDYSKYLDECRAKEFVQWLLDHHPSSGQPPPS; lactam 16-20) [compound 21]
Human GLP-1 receptor
  In vitro activity compared to native-type peptide (%) vs GLP-1: 0.1%
Human GCG receptor
  In vitro activity compared to native-type peptide (%) vs Glucagon: 1.6%
Human GIP receptor
  In vitro activity compared to native-type peptide (%) vs GIP: 0.2%

## 22 (Y[Aib]QGTFTSDYSKCLDEKRAKEFVQWLLDHHPSSGQPPPS; lactam 16-20) [compound 22]
Human GLP-1 receptor
  In vitro activity compared to native-type peptide (%) vs GLP-1: 0.1%
Human GCG receptor
  In vitro activity compared to native-type peptide (%) vs Glucagon: 0.9%
Human GIP receptor
  In vitro activity compared to native-type peptide (%) vs GIP: 0.5%

## 42 (Y[Aib]QGTFTSDYSKYLDEKRAKEFVQWLLDHHPSSGQPPPSC; lactam 16-20) [compound 42]
Human GLP-1 receptor
  In vitro activity compared to native-type peptide (%) vs GLP-1: 3.1%
Human GCG receptor
  In vitro activity compared to native-type peptide (%) vs Glucagon: 23.1%
Human GIP receptor
  In vitro activity compared to native-type peptide (%) vs GIP: 1.2%

## 43 (Y[Aib]QGTFTSDYSKYLDEKRAKEFVQWLLDHHCSSGQPPPS; lactam 16-20) [compound 43]
Human GLP-1 receptor
  In vitro activity compared to native-type peptide (%) vs GLP-1: 2.1%
Human GCG receptor
  In vitro activity compared to native-type peptide (%) vs Glucagon: 13.5%
Human GIP receptor
  In vitro activity compared to native-type peptide (%) vs GIP: 0.6%

## 50 (H[Aib]QGTFTSDYSKYLDEKRAKEFVQWLLDHHPSSGQPPPSC; lactam 16-20) [compound 50]
Human GLP-1 receptor
  In vitro activity compared to native-type peptide (%) vs GLP-1: 15.4%
Human GCG receptor
  In vitro activity compared to native-type peptide (%) vs Glucagon: 6.9%
Human GIP receptor
  In vitro activity compared to native-type peptide (%) vs GIP: 0.7%

## 77 (Y[Aib]QGTFTSDYSKYLDEKAAKDFVQWLLDHHPSSGQPPPSC; lactam 16-20) [compound 77]
Human GLP-1 receptor
  In vitro activity compared to native-type peptide (%) vs GLP-1: 6.7%
Human GCG receptor
  In vitro activity compared to native-type peptide (%) vs Glucagon: 1.7%
Human GIP receptor
  In vitro activity compared to native-type peptide (%) vs GIP: 6.6%

## 96 (Y[Aib]QGTFTSDYSKYLDEKRAKEFVQWLLDHCPSSGQPPPS; lactam 16-20) [compound 96]
Human GLP-1 receptor
  In vitro activity compared to native-type peptide (%) vs GLP-1: 0.3%
Human GCG receptor
  In vitro activity compared to native-type peptide (%) vs Glucagon: 4.0%
Human GIP receptor
  In vitro activity compared to native-type peptide (%) vs GIP: 0.3%

## YXQGTFTSDYSKCLDEKRAKEFVQWLLDHHPSSGQPPPS (Y[Aib]QGTFTSDYSKCLDEKRAKEFVQWLLDHHPSSGQPPPS; lactam 16-20) [Sequence number 22]
Human GCG receptor
  activity on the glucagon receptor: very high activity

## YXQGTFTSDYSKYLDECRAKDFVQWLLDHHPSSGQPPPS (Y[Aib]QGTFTSDYSKYLDECRAKDFVQWLLDHHPSSGQPPPS; lactam 16-20) [Sequence number 66]
Human GCG receptor
  activity on the glucagon receptor: very high activity

## YXQGTFTSDYSKYLDECRAKEFVQWLLDHHPSSGQPPPS (Y[Aib]QGTFTSDYSKYLDECRAKEFVQWLLDHHPSSGQPPPS; lactam 16-20) [Sequence number 21]
Human GCG receptor
  activity on the glucagon receptor: very high activity

## YXQGTFTSDYSKYLDEKRAKEFVQWLLDCHPSSGQPPPS (Y[Aib]QGTFTSDYSKYLDEKRAKEFVQWLLDCHPSSGQPPPS; lactam 16-20) [Sequence number 97]
Human GCG receptor
  activity on the glucagon receptor: very high activity

## YXQGTFTSDYSKYLDEKRAKEFVQWLLDHCPSSGQPPPS (Y[Aib]QGTFTSDYSKYLDEKRAKEFVQWLLDHCPSSGQPPPS; lactam 16-20) [Sequence number 96]
Human GCG receptor
  activity on the glucagon receptor: very high activity

## YXQGTFTSDYSKYLDEKRAKEFVQWLLDHHCSSGQPPPS (Y[Aib]QGTFTSDYSKYLDEKRAKEFVQWLLDHHCSSGQPPPS; lactam 16-20) [Sequence number 43]
Human GCG receptor
  activity on the glucagon receptor: very high activity

## YXQGTFTSDYSKYLDEKRAKEFVQWLLDHHPSSGQPPPSC (Y[Aib]QGTFTSDYSKYLDEKRAKEFVQWLLDHHPSSGQPPPSC; lactam 16-20) [Sequence number 42]
Human GCG receptor
  activity on the glucagon receptor: very high activity

Reference: US20230381333A1, “PHARMACEUTICAL COMPOSITION COMPRISING GLUCAGON/GLP-1/GIP TRIPLE AGONIST OR LONG-ACTING CONJUGATE THEREOF FOR PREVENTING OR TREATING VASCULITIS” (HANMI PHARM CO., LTD., priority 2020, published 2023)
